Data reported in patent US20190359687A1 (Bayer, published 2019).
No end group written: not given here.

T1: human glycophorin A on human red blood cells or red blood cell membranes (human, UniProt P02724 20-150)
T1 construct: whole, on cells; also called hRBC; human RBC membranes
T1 sequence (looked up): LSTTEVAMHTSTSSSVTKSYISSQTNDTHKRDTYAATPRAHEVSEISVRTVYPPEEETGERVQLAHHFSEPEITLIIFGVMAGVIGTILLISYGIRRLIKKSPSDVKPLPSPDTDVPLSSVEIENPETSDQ

T2: GP9 peptide of the human GPA ectodomain (human, not fully specified (N-terminus))
T2 peptide: RTVYPPEE

T3: GP15 peptide of the human GPA ectodomain (human, not fully specified (N-terminus))
T3 peptide: EEETGERV

T4: GP8 peptide of the human GPA ectodomain (human, not fully specified (N-terminus))
T4 peptide: VRTVYPPE

T5: GP13 peptide of the human GPA ectodomain (human, not fully specified (N-terminus))
T5 peptide: PPEEETGE

T6: GP12 peptide of the human GPA ectodomain (human, not fully specified (N-terminus))
T6 peptide: YPPEEETG

T7: GP10 peptide of the human GPA ectodomain (human, not fully specified (N-terminus))
T7 peptide: TVYPPEEE

T8: GP11 peptide of the human GPA ectodomain (human, not fully specified (N-terminus))
T8 peptide: VYPPEEET

T9: GP16 peptide of the human GPA ectodomain (human, not fully specified (N-terminus))
T9 peptide: EETGERVQ

T10: GP14 peptide of the human GPA ectodomain (human, not fully specified (N-terminus))
T10 peptide: PEEETGER

T11: GP7 peptide of the human GPA ectodomain (human, not fully specified (N-terminus))
T11 peptide: SVRTVYPP


Key:
[1] = molecular target: T1, human glycophorin A on human red blood …; experiment: Fab on intact human RBC, unbound Fab by ELISA; 20 min after 200-fold dilution
[2] = molecular target: T1, human glycophorin A on human red blood …; experiment: Fab 7 ug/ml on intact human RBC, unbound Fab by ELISA; pre-dilution
Method: (§1) The binding of affinity matured Fab antibodies to intact human RBC was also measured. Human RBC were isolated from fresh anti-coagulated normal human blood by centrifugation through a ficol gradient and washing in PBS buffer. RBC diluted to 1/10th of normal hematocrit were incubated with purified Fab antibodies at a final concentration of 7 ug/ml for 1 hour at room temperature on a rotating shaker after which a sample was taken and the RBC were pelleted by centrifugation and the supernatant was collected. The remaining RBC suspension was diluted 200-fold in PBS buffer and incubated for a total of 2 hours at room temperature on a rotating shaker and samples were removed at 0, 5 min, 20 min, 1 h and 2 h and the RBC pelleted and the supernatant collected. The amount of Fab in the supernatants was then measured using an ELISA assay and the results used to calculate the percentage of the input Fab that was bound to the RBC. […] The percentage that remains bound after 200-fold dilution of the RBC suspension is an indication of the overall strength of the binding to human RBC.

[3] = molecular target: T2, GP9 peptide of the human GPA ectodomain; experiment: ELISA, Fab 0.5 ug/ml on biotin-peptide on streptavidin plate
From the text: (§2) These peptides were attached to the surface of a streptavidin coated plate via a biotin moiety that was present at the N-terminus of each peptide.

[4] = molecular target: T3, GP15 peptide of the human GPA ectodomain; experiment: as above
From the text: as §2

[5] = molecular target: T4, GP8 peptide of the human GPA ectodomain; experiment: as above
From the text: as §2

[6] = molecular target: T12, GP5 peptide of the human GPA ectodomain (human, N-terminal biotin); experiment: as above
T12 construct: Residues 42 to 61 of the human GPA extracellular domain
From the text: as §2

[7] = molecular target: T5, GP13 peptide of the human GPA ectodomain; experiment: as above
From the text: as §2

[8] = molecular target: T6, GP12 peptide of the human GPA ectodomain; experiment: as above
From the text: as §2

[9] = molecular target: T7, GP10 peptide of the human GPA ectodomain; experiment: as above
From the text: as §2

[10] = molecular target: T8, GP11 peptide of the human GPA ectodomain; experiment: as above
From the text: as §2

[11] = molecular target: T9, GP16 peptide of the human GPA ectodomain; experiment: as above
From the text: as §2

[12] = molecular target: T10, GP14 peptide of the human GPA ectodomain; experiment: as above
From the text: as §2

[13] = molecular target: T11, GP7 peptide of the human GPA ectodomain; experiment: as above
From the text: as §2

[14] = molecular target: T1, human glycophorin A on human red blood …; experiment: Fab on intact human RBC, unbound Fab by ELISA; 60 min after 200-fold dilution
Method: as §1

[15] = molecular target: T2, GP9 peptide of the human GPA ectodomain; experiment: ELISA, Fab 0.05 ug/ml on biotin-peptide on streptavidin plate
From the text: as §2

[16] = molecular target: T3, GP15 peptide of the human GPA ectodomain; experiment: as above
From the text: as §2

[17] = molecular target: T4, GP8 peptide of the human GPA ectodomain; experiment: as above
From the text: as §2

[18] = molecular target: T12, GP5 peptide of the human GPA ectodomain; experiment: as above
From the text: as §2

[19] = molecular target: T5, GP13 peptide of the human GPA ectodomain; experiment: as above
From the text: as §2

[20] = molecular target: T6, GP12 peptide of the human GPA ectodomain; experiment: as above
From the text: as §2

[21] = molecular target: T7, GP10 peptide of the human GPA ectodomain; experiment: as above
From the text: as §2

[22] = molecular target: T8, GP11 peptide of the human GPA ectodomain; experiment: as above
From the text: as §2

[23] = molecular target: T9, GP16 peptide of the human GPA ectodomain; experiment: as above
From the text: as §2

[24] = molecular target: T10, GP14 peptide of the human GPA ectodomain; experiment: as above
From the text: as §2

[25] = molecular target: T11, GP7 peptide of the human GPA ectodomain; experiment: as above
From the text: as §2

[26] = molecular target: T1, human glycophorin A on human red blood …; experiment: Fab on intact human RBC, unbound Fab by ELISA; 120 min after 200-fold dilution
[27] = molecular target: T1, human glycophorin A on human red blood …; experiment: SPR (Biacore), Fab on human RBC membranes;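 further: human RBC membranes captured on an L1 sensor chip, Fab fragments passed over as analyte, binding kinetics read by surface plasmon resonance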
Method: Kinetic analysis of the antibody binding to human red blood cell membranes was also performed using surface plasmon resonance (SPR) using a Biacore instrument. In this assay membranes prepared from human red blood cells were attached to a L1 sensor matrix and antibodies were flowed over the RBC membranes.
The binding kinetics of the affinity matured Fab antibodies was also measured.

| percentage of input antibody bound [1] [%] | percentage of input antibody bound [2] [%] | binding signal in ELISA (relative light units) [3] [RLU] | binding signal in ELISA (relative light units) [4] [RLU] | binding signal in ELISA (relative light units) [5] [RLU] | binding signal in ELISA (relative light units) [6] [RLU] | binding signal in ELISA (relative light units) [7] [RLU] | binding signal in ELISA (relative light units) [8] [RLU] | binding signal in ELISA (relative light units) [9] [RLU] | binding signal in ELISA (relative light units) [10] [RLU] | binding signal in ELISA (relative light units) [11] [RLU] | binding signal in ELISA (relative light units) [12] [RLU] | binding signal in ELISA (relative light units) [13] [RLU] | percentage of input antibody bound [14] [%] | binding signal in ELISA (relative light units) [15] [RLU] | binding signal in ELISA (relative light units) [16] [RLU] | binding signal in ELISA (relative light units) [17] [RLU] | binding signal in ELISA (relative light units) [18] [RLU] | binding signal in ELISA (relative light units) [19] [RLU] | binding signal in ELISA (relative light units) [20] [RLU] | Binder | other results |
| --- | --- | --- | --- | --- | --- | --- | --- | --- | --- | --- | --- | --- | --- | --- | --- | --- | --- | --- | --- | --- | --- |
| 88 | 91 | 169 | 0 | 3370 | 6990 | -1 | 0 | 38 | 1 | 0 | 0 | 1 | 87 | 7 | -1 | 83 | 2880 | 0 | -1 | TPP-7790, affinity matured 6C12 Fab (Fab, V domains shown, Tested as Fab with a 6xHIS tag) VH: EVQLVQSGAEVKKPGASVKVSCKASGYTFTTYAIHWVRQAPGQGLEWMGYINPSSGYTRYNPKFKHRVTMTRDKSTSTAYMELRSLRSDDTAVYYCWTGTRDYWGQGTTVTVSS VL: DIQLTQSPSFLSASVGDRVTITCRASSSVRYIYWFQQKPGKAPKLLIYATSFLQSGVPSRFSGSGSGTEYTLTISSLQPEDFATYYCHQRNSFPYTFGQGTKLEIK | binding signal in ELISA (relative light units) [21]: 7 RLU; binding signal in ELISA (relative light units) [22]: 0 RLU; binding signal in ELISA (relative light units) [23]: -1 RLU; binding signal in ELISA (relative light units) [24]: -1 RLU; binding signal in ELISA (relative light units) [25]: 0 RLU; percentage of input antibody bound [26]: 88%; kon [27]: 8.58e+06 M⁻¹ s⁻¹ |
| 4 | 93 | 1 | -1 | 1 | 6680 | -1 | -1 | 0 | 0 | -1 | -1 | 0 | 8 | -1 | -1 | -1 | 2000 | -1 | -1 | TPP-5906, humanized and germlined 6C12 Fab; VL: (S24R, A26S, S49A, P54Q, F95Y); VH: (I48M, D56G, D66G, L70M, T72R) (Fab, V domains shown, The text says that a 6xHIS tag is present on the Fabs in the peptide ELISA; it is not in the printed chains) VH: EVQLVQSGAEVKKPGASVKVSCKASGYTFTTYTIHWVRQAPGQGLEWMGYINPSSGYTRYNPKFKGRVTMTRDKSTSTAYMELRSLRSDDTAVYYCQTGTRDYWGQGTTVTVSS VL: DIQLTQSPSFLSASVGDRVTITCRASSSVSYIYWFQQKPGKAPKLLIYATSTLQSGVPSRFSGSGSGTEYTLTISSLQPEDFATYYCHQRNSFPYTFGQGTKLEIKR | binding signal in ELISA (relative light units) [21]: 0 RLU; binding signal in ELISA (relative light units) [22]: -1 RLU; binding signal in ELISA (relative light units) [23]: 0 RLU; binding signal in ELISA (relative light units) [24]: -1 RLU; binding signal in ELISA (relative light units) [25]: -1 RLU; percentage of input antibody bound [26]: 8%; Kd [27]: 0.707 nM; koff [27]: 0.00504 s⁻¹; kon [27]: 7.14e+06 M⁻¹ s⁻¹ |
